# Measurements taken from US20200199204A1.
# Experiments:
# Test in all cases: cell-based or functional assay
# [1] = target: HIV-1 Env of CM244.ec1 (HIV-1)
# [2] = target: HIV-1 Env of TH976.17 (HIV-1)
# [3] = target: HIV-1 Env of CAP45.G3 (HIV-1)
# [4] = target: HIV-1 Env of ZM135.10a (HIV-1)
# [5] = target: HIV-1 Env of Q168.a2 (HIV-1)
# [6] = target: HIV-1 Env of Q23.17 (HIV-1)
# [7] = target: HIV-1 Env of 191821.E6.1 (HIV-1)
# [8] = target: HIV-1 Env of 6535.3 (HIV-1)
# [9] = target: HIV-1 Env of SC422.8 (HIV-1)
# [10] = target: HIV-1 Env of KER2008.12 (HIV-1)
# [11] = target: HIV-1 Env of AC10.29 (HIV-1)
# [12] = target: HIV-1 Env of Q259.d2.17 (HIV-1)
# [13] = target: HIV-1 Env of RW020.2 (HIV-1)
# [14] = target: HIV-1 Env of 6405.v4.c34 (HIV-1)
# [15] = target: HIV-1 Env of ZM109.4 (HIV-1)
# [16] = target: HIV-1 Env of DU156.12 (HIV-1)
# [17] = target: HIV-1 Env of QH0692.42 (HIV-1)
# [18] = target: HIV-1 Env of CAP256.SU (HIV-1)
# [19] = target: HIV-1 Env of CAAN.A2 (HIV-1)
# [20] = target: HIV-1 Env of 3016.V5.c36 (HIV-1)
# [21] = target: HIV-1 Env of Q461.e2 (HIV-1)
# [22] = target: HIV-1 Env of BG505.w6m (HIV-1)
# [23] = target: HIV-1 Env of MB201 (HIV-1)
# [24] = target: HIV-1 Env of WITO.33 (HIV-1)
# [25] = target: HIV-1 Env of MB539.2B7 (HIV-1)
# [26] = target: HIV-1 Env of PVO.04 (HIV-1)
# [27] = target: HIV-1 Env of DU172.17 (HIV-1)
# [28] = target: HIV-1 Env of CAP210.E8 (HIV-1)
# [29] = target: HIV-1 Env of ZM249.1 (HIV-1)
# [30] = target: HIV-1 Env of DU422.01 (HIV-1)
# [31] = target: HIV-1 Env of CNE3 (HIV-1)
# [32] = target: HIV-1 Env of CAP244.D3 (HIV-1)
# [33] = target: HIV-1 Env of REJO.67 (HIV-1)
# [34] = target: HIV-1 Env of ZM197.7 (HIV-1)
# [35] = target: HIV-1 Env of RHPA.7 (HIV-1)
# [36] = target: HIV-1 Env of Q842.d12 (HIV-1)
# [37] = target: HIV-1 Env of UG037.8 (HIV-1)
# [38] = target: HIV-1 Env of C1080.c3 (HIV-1)
# [39] = target: HIV-1 Env of ZM214.15 (HIV-1)
# [40] = target: HIV-1 Env of TRJO.58 (HIV-1)
# [41] = target: HIV-1 Env of TRO.11 (HIV-1)
# [42] = target: HIV-1 Env of Q769.d22 (HIV-1)
# [43] = target: HIV-1 Env of 0260.v5.c36 (HIV-1)
# [44] = target: HIV-1 Env of KER2018.11 (HIV-1)
# [45] = target: HIV-1 Env of 96ZM651.02 (HIV-1)
# [46] = target: HIV-1 Env of ZM53.12 (HIV-1)
# [47] = target: HIV-1 Env of ZM233.6 (HIV-1)
# [48] = target: HIV-1 Env of THRO.18 (HIV-1)
# [49] = target: HIV-1 Env of CAP256.PI (HIV-1)
substance,measurement,setting,value
CAP256-VRC26.17 (antibody),IC50,[1],0.14 µg/mL
same,IC50,[2],> 50 µg/mL
same,IC50,[3],> 50 µg/mL
same,IC50,[4],> 50 µg/mL
same,IC50,[5],> 50 µg/mL
same,IC50,[6],6.42 µg/mL
same,IC50,[7],35.4 µg/mL
same,IC50,[8],> 50 µg/mL
same,IC50,[9],> 50 µg/mL
same,IC50,[10],> 50 µg/mL
same,IC50,[11],> 50 µg/mL
same,IC50,[12],0.076 µg/mL
same,IC50,[13],> 50 µg/mL
same,IC50,[14],> 50 µg/mL
same,IC50,[15],> 50 µg/mL
same,IC50,[16],18.7 µg/mL
same,IC50,[17],> 50 µg/mL
same,IC50,[18],0.003 µg/mL
same,IC50,[19],> 50 µg/mL
same,IC50,[20],0.011 µg/mL
same,IC50,[21],> 50 µg/mL
same,IC50,[22],0.4 µg/mL
same,IC50,[23],> 50 µg/mL
same,IC50,[24],> 50 µg/mL
same,IC50,[25],> 50 µg/mL
same,IC50,[26],> 50 µg/mL
same,IC50,[27],> 50 µg/mL
same,IC50,[28],0.006 µg/mL
same,IC50,[29],1.23 µg/mL
same,IC50,[30],0.51 µg/mL
same,IC50,[31],> 50 µg/mL
same,IC50,[32],> 50 µg/mL
same,IC50,[33],> 50 µg/mL
same,IC50,[34],2.2 µg/mL
same,IC50,[35],> 50 µg/mL
same,IC50,[36],> 50 µg/mL
same,IC50,[37],> 50 µg/mL
same,IC50,[38],> 50 µg/mL
same,IC50,[39],> 50 µg/mL
same,IC50,[40],> 50 µg/mL
same,IC50,[41],> 50 µg/mL
same,IC50,[42],> 50 µg/mL
same,IC50,[43],> 50 µg/mL
same,IC50,[44],0.064 µg/mL
same,IC50,[45],> 50 µg/mL
same,IC50,[46],0.005 µg/mL
same,IC50,[47],0.006 µg/mL
same,IC50,[48],> 50 µg/mL
same,IC50,[49],> 50 µg/mL
CAP256-VRC26.16 (antibody),IC50,[1],0.67 µg/mL
same,IC50,[2],> 50 µg/mL
same,IC50,[3],> 50 µg/mL
same,IC50,[4],> 50 µg/mL
same,IC50,[5],> 50 µg/mL
same,IC50,[6],> 50 µg/mL
same,IC50,[7],0.82 µg/mL
same,IC50,[8],> 50 µg/mL
same,IC50,[9],> 50 µg/mL
same,IC50,[10],> 50 µg/mL
same,IC50,[11],> 50 µg/mL
same,IC50,[12],5.78 µg/mL
same,IC50,[13],> 50 µg/mL
same,IC50,[14],> 50 µg/mL
same,IC50,[15],> 50 µg/mL
same,IC50,[16],48.7 µg/mL
same,IC50,[17],> 50 µg/mL
same,IC50,[18],0.004 µg/mL
same,IC50,[19],> 50 µg/mL
same,IC50,[20],0.012 µg/mL
same,IC50,[21],> 50 µg/mL
same,IC50,[22],0.36 µg/mL
same,IC50,[23],> 50 µg/mL
same,IC50,[24],> 50 µg/mL
same,IC50,[25],> 50 µg/mL
same,IC50,[26],> 50 µg/mL
same,IC50,[27],> 50 µg/mL
same,IC50,[28],0.009 µg/mL
same,IC50,[29],45 µg/mL
same,IC50,[30],3.9 µg/mL
same,IC50,[31],> 50 µg/mL
same,IC50,[32],> 50 µg/mL
same,IC50,[33],> 50 µg/mL
same,IC50,[34],2.21 µg/mL
same,IC50,[35],> 50 µg/mL
same,IC50,[36],> 50 µg/mL
same,IC50,[37],> 50 µg/mL
same,IC50,[38],5.9 µg/mL
same,IC50,[39],> 50 µg/mL
same,IC50,[40],> 50 µg/mL
same,IC50,[41],> 50 µg/mL
same,IC50,[42],> 50 µg/mL
same,IC50,[43],> 50 µg/mL
same,IC50,[44],0.062 µg/mL
same,IC50,[45],> 50 µg/mL
same,IC50,[46],0.006 µg/mL
same,IC50,[47],0.031 µg/mL
same,IC50,[48],> 50 µg/mL
same,IC50,[49],> 50 µg/mL
CAP256-VRC26.18 (antibody),IC50,[1],1.42 µg/mL
same,IC50,[2],> 50 µg/mL
same,IC50,[3],> 50 µg/mL
same,IC50,[4],> 50 µg/mL
same,IC50,[5],> 50 µg/mL
same,IC50,[6],35 µg/mL
same,IC50,[7],10.4 µg/mL
same,IC50,[8],> 50 µg/mL
same,IC50,[9],> 50 µg/mL
same,IC50,[10],> 50 µg/mL
same,IC50,[11],> 50 µg/mL
same,IC50,[12],5.31 µg/mL
same,IC50,[13],> 50 µg/mL
same,IC50,[14],> 50 µg/mL
same,IC50,[15],> 50 µg/mL
same,IC50,[16],> 50 µg/mL
same,IC50,[17],> 50 µg/mL
same,IC50,[18],0.008 µg/mL
same,IC50,[19],> 50 µg/mL
same,IC50,[20],0.028 µg/mL
same,IC50,[21],> 50 µg/mL
same,IC50,[22],1.9 µg/mL
same,IC50,[23],> 50 µg/mL
same,IC50,[24],> 50 µg/mL
same,IC50,[25],> 50 µg/mL
same,IC50,[26],> 50 µg/mL
same,IC50,[27],> 50 µg/mL
same,IC50,[28],0.019 µg/mL
same,IC50,[29],> 50 µg/mL
same,IC50,[30],5.4 µg/mL
same,IC50,[31],> 50 µg/mL
same,IC50,[32],> 50 µg/mL
same,IC50,[33],> 50 µg/mL
same,IC50,[34],1.89 µg/mL
same,IC50,[35],> 50 µg/mL
same,IC50,[36],> 50 µg/mL
same,IC50,[37],> 50 µg/mL
same,IC50,[38],2.15 µg/mL
same,IC50,[39],> 50 µg/mL
same,IC50,[40],> 50 µg/mL
same,IC50,[41],> 50 µg/mL
same,IC50,[42],> 50 µg/mL
same,IC50,[43],> 50 µg/mL
same,IC50,[44],0.03 µg/mL
same,IC50,[45],> 50 µg/mL
same,IC50,[46],0.01 µg/mL
same,IC50,[47],0.037 µg/mL
same,IC50,[48],> 50 µg/mL
same,IC50,[49],> 50 µg/mL
